From patent US20240150449A1
Residue numbers refer to the chain shown, from its start. Blank lines part the entries; values can stand above or below the binder they belong to.

Assays:
[1] = molecular target: recombinant in vitro phosphorylated full-length TDP-43 (TDP-43-MBP phosphorylated with casein kinase 1 delta) (human) (UniProt Q13148); test: SPR Biacore 8K, 25 C, in vitro phosphorylated TDP-43 amine-coupled on CM5, IgG as analyte (avidity)
[2] = molecular target: recombinant in vitro phosphorylated full-length TDP-43 (TDP-43-MBP phosphorylated with casein kinase 1 delta) (human) (UniProt Q13148); test: SPR Biacore 8K, 25 C, in vitro phosphorylated TDP-43 amine-coupled on CM5, Fab as analyte

Kd [1]: 0.01 nM | koff [1]: 0.0003 s⁻¹ | kon [1]: 2.5e+07 M⁻¹ s⁻¹
B1: antibody 31F3 (human IgG) (antibody, V domains shown)
VH: QVQLEQSGAEVKRPGASVKVSCKASGYTFTGYYLHWVRQAPGQGLEWMGRINPGSGGTKYAQKFQGRVSMTRDTSISTAYMEVNRLRPDDTAVYYCARYQVYGERGRYMDVWGKGTTVTVSS
VL: QSALTQPASVSGSPGQSITISCTGTSSDVGTYDLVSWYQQHPGKAPKLIIYEDNKRPSGLSNRFSGSKSGNTASLTISGLQADDEADYYCCSYAAISTLIFGGGTKVTVL

Kd [2]: 34 nM | koff [2]: 0.11 s⁻¹ | kon [2]: 3.1e+06 M⁻¹ s⁻¹
B2: 30E1 Fab (Fab, V domains shown)
VH: QVQLVQSGAEVKKPGASVKVSCKTSGYTFTDYYLHWVRQAPGQGLEWMGRINPNSGNTNYAQKFQGRVSVTRDTSISTAYMELSRLSSDDTAVYFCARVKIVVLRSTPTLYYFDYWGQGTLVTVSS
VL: B1 VL with L48V, I49M, D53G, N54S, L60V, D83E, A95G, I96T, I100V

Kd [2]: 2.5 nM | koff [2]: 0.017 s⁻¹ | kon [2]: 6.8e+06 M⁻¹ s⁻¹
B3: 31F3 Fab (Fab, V domains shown)
VH: B1 VH
VL: B1 VL

Kd [1]: 0.02 nM | koff [1]: 0.00061 s⁻¹ | kon [1]: 3e+07 M⁻¹ s⁻¹
B4: antibody 30E1 (human IgG) (antibody, V domains shown)
VH: B2 VH
VL: B1 VL with L48V, I49M, D53G, N54S, L60V, D83E, A95G, I96T, I100V
